Earlier results in PMC7702019 (ACS chemical biology, 2020).
Bridges are numbered along the chain shown (N, C = ends). Where no end group is shown, it is not given here.

Conditions: for amyloidogenicity: under normal conditions, rat and mouse amylin

Substance: H18R: H18R substitution of human amylin (literature) (KCNTATCATQRLANFLVRSSNNFGAILSSTNVGSNTY; ends and bridges not checked; cysteine pairing not given here; UniProt P10997 34-70, looked up, variant H18R)
- rate of amyloid formation in vitro (substitution in human amylin, in vitro): reduces the rate of amyloid formation

Substance: Pramlintide: triple mutant of human amylin with A25, S28, and S29 replaced by Pro (KCNTATCATQRLANFLVHSSNNFGPILPPTNVGSNTY-NH2; disulfide 2-7; UniProt P10997 34-70, looked up, variant A25P S28P S29P)
- amyloidogenicity in vitro (pramlintide, reference not given): not amyloidogenic in vitro, except at high concentrations

Substance: bovine amylin: bovine amylin (CGTATCETQRLANFLAPSSNKLGAIFSPTKMGSNTY; ends and bridges not checked; cysteine pairing not given here; UniProt Q28207 37-72, looked up)
- amyloidogenicity relative to human amylin (porcine and bovine amylin): much less amyloidogenic than human amylin

Substance: mouse amylin: identical sequence to rat amylin
- amyloidogenicity: not amyloidogenic under normal conditions

Substance: rat amylin: contains prolines at position 25, 28, and 29 and a H18R replacement relative to human amylin
- amyloid formation in vitro (in vitro, reference not given): form amyloid in vitro, but only at very high non-physiological conditions
- amyloidogenicity: not amyloidogenic under normal conditions
